The test has as its target GST-VPS29C (human) (UniProt F8VXU5). Put plainly: ITC; 300 μM peptide titrated into 10 μM GST-tagged VPS29C, 25 °C, 50 mM Tris-HCl pH 7.5, 200 mM NaCl, 2 mM β-mercaptoethanol; single-site model. For orientation: Isothermal titration calorimetry measures the heat released or taken up as one component is titrated into another.

For “VPS35L 28 to 37 (from UniProt Q7Z3J2 28-37) (peptide)”, the Kd (in general, a measure of binding affinity in units of concentration) was over 100 µM.
